From US9549967B2, “Regulation of sodium channels by PLUNC proteins” (The University of North Carolina at Chapel Hill, priority 2009, dated 2017) come the findings set out here.

Data set [1] addresses ENaC endogenous to primary human bronchial epithelial cultures (human) (UniProt P37088). Description: cell-based or functional assay.
In data set [2] the target is αβγENaC expressed in Xenopus laevis oocytes (rat) (UniProt P37089). Description: cell-based or functional assay.
For data set [3], the system named is T1, Recombinant SPLUNC1 (V5/6His-tagged, purified from HEK293 media).
T1 sequence: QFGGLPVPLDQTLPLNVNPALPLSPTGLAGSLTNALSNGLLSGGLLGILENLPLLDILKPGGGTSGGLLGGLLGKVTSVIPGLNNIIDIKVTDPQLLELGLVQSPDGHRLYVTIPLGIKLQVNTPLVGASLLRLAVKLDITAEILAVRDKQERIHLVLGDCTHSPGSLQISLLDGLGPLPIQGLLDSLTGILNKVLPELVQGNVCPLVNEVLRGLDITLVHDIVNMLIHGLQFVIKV

Data set [4] concerns the target T2, ENaC containing the βS518C mutant (Rattus norvegicus, UniProt P37089+P37090+P37091, S518C).
T2 construct: expressed in transfected cells; host or cells: Xenopus oocytes
T2 sequence (P37089 1-698): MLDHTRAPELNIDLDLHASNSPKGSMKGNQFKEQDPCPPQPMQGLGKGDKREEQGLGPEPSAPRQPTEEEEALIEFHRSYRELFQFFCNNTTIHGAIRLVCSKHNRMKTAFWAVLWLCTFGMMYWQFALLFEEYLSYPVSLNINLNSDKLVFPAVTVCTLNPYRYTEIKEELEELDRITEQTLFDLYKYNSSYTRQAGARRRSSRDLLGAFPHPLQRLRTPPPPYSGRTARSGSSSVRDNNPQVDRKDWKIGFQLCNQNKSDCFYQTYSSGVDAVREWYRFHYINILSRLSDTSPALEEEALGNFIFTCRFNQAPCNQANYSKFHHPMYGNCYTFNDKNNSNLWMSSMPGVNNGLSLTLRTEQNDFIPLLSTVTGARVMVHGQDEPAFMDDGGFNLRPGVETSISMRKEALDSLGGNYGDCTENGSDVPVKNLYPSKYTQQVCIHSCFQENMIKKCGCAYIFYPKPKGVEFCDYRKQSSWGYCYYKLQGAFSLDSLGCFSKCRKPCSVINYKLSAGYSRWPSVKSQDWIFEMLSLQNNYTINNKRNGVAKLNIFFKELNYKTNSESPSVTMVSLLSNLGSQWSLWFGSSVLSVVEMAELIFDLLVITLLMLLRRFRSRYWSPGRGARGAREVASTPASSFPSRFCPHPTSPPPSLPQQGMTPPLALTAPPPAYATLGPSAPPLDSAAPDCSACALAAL
T2 sequence (P37090 1-638 S518C): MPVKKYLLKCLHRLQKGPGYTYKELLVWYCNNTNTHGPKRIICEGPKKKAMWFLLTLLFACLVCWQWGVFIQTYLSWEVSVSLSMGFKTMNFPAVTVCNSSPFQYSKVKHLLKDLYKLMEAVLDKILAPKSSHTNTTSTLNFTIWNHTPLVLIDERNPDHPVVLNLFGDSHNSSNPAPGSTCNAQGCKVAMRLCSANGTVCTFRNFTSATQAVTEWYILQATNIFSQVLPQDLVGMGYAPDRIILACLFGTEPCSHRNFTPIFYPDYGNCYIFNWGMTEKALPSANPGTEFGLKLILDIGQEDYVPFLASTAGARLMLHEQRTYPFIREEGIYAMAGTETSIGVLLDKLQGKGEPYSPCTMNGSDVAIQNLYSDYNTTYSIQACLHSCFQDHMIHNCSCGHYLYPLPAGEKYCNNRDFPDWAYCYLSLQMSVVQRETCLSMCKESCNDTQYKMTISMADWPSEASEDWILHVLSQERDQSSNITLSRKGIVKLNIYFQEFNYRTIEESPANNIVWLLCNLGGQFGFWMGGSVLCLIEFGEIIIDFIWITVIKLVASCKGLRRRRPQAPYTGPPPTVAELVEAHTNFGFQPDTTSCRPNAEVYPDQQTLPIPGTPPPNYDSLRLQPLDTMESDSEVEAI
T2 sequence (P37091 1-650): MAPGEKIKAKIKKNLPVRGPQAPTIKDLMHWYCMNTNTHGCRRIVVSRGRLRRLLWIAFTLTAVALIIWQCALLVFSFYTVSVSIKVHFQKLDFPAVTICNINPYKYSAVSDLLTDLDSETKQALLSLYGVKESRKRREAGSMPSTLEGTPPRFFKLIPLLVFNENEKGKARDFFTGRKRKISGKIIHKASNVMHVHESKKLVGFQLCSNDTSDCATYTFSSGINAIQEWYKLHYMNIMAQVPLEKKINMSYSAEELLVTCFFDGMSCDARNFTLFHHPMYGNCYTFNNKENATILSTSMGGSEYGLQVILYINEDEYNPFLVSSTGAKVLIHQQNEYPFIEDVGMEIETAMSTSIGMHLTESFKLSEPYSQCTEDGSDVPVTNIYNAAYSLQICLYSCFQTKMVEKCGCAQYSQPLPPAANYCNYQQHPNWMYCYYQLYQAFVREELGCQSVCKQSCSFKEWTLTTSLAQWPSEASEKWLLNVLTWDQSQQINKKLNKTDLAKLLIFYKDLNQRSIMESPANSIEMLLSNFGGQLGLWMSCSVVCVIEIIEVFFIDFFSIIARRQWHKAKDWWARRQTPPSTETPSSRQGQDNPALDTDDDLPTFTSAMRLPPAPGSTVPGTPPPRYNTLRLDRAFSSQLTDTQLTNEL
Nature of the data set: Oocyte current of ENaC containing the βS518C mutant with MTSET. The format is cell-based. As to conditions: addition of MTSET. On the procedure:
Oocyte studies. Xenopus laevis oocytes were harvested and injected as described (Donaldson, et al., J. Biol. Chem. 277:8338 (2002)). Defolliculated healthy stage V-VI oocytes were injected with 0.3 ng of cRNA of each ENaC subunit. Injected oocytes were kept in modified Barth's saline (in mM: 88 NaCl, 1 KCl, 2.4 NaHCO3, 0.3 Ca(NO3)2, 0.41 CaCl2, 0.82 MgSO4, and 15 HEPES, adjusted to pH 7.35 with Tris). Oocytes were studied 24 hr after injection using the two electrode voltage clamp technique as previously described (Donaldson, et al., J. Biol. Chem. 277:8338 (2002)). Oocytes were clamped at a holding potential of […]. The change in amiloride-sensitive whole cell current as an indicator of ENaC activity was determined by subtracting the corresponding current value measured in the presence of 10 μM amiloride from that measured before the application of amiloride.
The effect of SPLUNC1 on the number of ENaC channels in the plasma membrane was tested by expressing SPLUNC1 and αENaC in Xenopus oocytes. After surface biotinylation of αENaC, total lysate was prepared and lysate from 3-4 eggs was separated on a 10% gel.

Data set [5] has as its target yfp-tagged αENaC stably expressed on JME nasal epithelial cells. Description: fluorescence binding isotherm on polarized JME cells expressing yfp-αENaC, empty-vector cells as non-specific control, Hill fit.
The target in data set [6] is αβγENaC expressed in Xenopus laevis oocytes (rat, UniProt P37089 1-698; P37090 1-638; P37091 1-650). Description: cell-based or functional assay.

Sequence of ENaC endogenous to primary human bronchial epithelial cultures (human) (P37088 whole entry, chain 1 of 3): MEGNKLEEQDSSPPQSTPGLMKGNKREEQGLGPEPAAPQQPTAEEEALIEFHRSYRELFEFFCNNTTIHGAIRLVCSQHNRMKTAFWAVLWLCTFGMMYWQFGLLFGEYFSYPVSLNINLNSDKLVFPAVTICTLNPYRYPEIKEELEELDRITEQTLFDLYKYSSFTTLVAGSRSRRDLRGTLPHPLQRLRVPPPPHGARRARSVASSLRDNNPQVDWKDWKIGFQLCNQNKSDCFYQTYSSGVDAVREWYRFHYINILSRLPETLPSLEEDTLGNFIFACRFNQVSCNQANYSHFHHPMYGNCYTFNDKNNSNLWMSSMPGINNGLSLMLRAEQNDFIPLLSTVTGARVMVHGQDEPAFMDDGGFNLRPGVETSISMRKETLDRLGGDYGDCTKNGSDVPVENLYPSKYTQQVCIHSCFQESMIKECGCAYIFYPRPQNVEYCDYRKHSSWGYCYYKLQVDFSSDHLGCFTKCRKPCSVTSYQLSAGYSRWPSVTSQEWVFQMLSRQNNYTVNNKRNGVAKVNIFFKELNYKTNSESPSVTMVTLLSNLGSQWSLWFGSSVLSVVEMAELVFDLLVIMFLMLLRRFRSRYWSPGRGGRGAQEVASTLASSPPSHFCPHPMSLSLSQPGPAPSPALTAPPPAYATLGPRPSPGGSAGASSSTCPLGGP
Sequence of ENaC endogenous to primary human bronchial epithelial cultures (human) (P51168 whole entry, chain 2 of 3, further chain): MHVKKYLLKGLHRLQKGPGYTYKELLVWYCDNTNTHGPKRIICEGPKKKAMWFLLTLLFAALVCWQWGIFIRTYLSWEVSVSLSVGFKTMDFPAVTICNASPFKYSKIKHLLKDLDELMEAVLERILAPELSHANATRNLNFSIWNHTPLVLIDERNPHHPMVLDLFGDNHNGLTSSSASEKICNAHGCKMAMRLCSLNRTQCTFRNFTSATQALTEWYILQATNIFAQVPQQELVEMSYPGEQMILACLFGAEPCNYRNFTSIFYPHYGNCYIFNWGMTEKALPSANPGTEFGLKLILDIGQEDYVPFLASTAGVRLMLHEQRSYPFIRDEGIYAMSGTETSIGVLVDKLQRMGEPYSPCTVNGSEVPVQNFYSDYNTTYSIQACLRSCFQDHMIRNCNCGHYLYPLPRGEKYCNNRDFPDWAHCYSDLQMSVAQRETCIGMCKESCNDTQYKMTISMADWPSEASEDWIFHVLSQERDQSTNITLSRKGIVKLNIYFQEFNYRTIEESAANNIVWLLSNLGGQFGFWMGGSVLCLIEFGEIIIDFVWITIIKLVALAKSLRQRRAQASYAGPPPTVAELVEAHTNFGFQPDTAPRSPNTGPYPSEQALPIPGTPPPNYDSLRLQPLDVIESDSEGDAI
Sequence of ENaC endogenous to primary human bronchial epithelial cultures (human) (P51170 whole entry, chain 3 of 3, further chain): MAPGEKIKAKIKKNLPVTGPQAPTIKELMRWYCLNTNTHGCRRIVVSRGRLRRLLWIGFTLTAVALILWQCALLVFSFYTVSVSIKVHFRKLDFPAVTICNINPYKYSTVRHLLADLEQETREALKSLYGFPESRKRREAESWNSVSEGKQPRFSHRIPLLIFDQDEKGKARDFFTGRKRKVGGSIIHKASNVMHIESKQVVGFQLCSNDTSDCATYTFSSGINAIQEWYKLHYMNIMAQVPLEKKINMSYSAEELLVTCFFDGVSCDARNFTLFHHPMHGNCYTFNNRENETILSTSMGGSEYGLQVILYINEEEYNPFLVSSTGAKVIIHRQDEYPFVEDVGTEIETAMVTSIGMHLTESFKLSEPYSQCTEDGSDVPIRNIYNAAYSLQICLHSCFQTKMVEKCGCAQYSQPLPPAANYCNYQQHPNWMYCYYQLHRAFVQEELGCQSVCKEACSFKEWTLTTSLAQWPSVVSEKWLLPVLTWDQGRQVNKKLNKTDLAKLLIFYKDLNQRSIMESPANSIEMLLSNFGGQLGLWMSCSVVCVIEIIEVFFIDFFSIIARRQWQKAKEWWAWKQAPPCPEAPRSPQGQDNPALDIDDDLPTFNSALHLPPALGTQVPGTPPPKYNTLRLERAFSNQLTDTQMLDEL
Sequence of yfp-tagged αENaC stably expressed on JME nasal epithelial cells (P37088 whole entry): as the sequence (P37088 whole entry, chain 1 of 3) above

For “Recombinant SPLUNC1 (V5/6His-tagged, purified from HEK293 media) (from UniProt Q9NP55 20-256)”, in data set [1], the ENaC inhibition amounted to 70% and the transepithelial electrical resistance is 33%. In data set [2], the decrease in ENaC currents (amiloride-sensitive whole cell current, oocytes) came to 70%.

Regarding trypsin, the “cleavage of fluorogenic substrate BGAR-MCA by 1.0 or 0.3 U/ml trypsin” value in data set [3] is given as 50 ng/ml rSPLUNC1 had only a modest affect (˜10%) on the ability of either 1.0 or 0.3 U/ml trypsin to cleave a fluorogenic substrate. On to `C[N+](C)(C)CCSS(C)(=O)=O.[Br-]` [MTSET, reference compound], for which, in data set [4], the “ENaC Po” value turned out to be 1.0. For orientation: Kd means a measure of binding affinity in units of concentration. Molecule “Texas red-labeled recombinant SPLUNC1 (from UniProt Q9NP55 20-256)” yielded a Kd in data set [5] of 0.055 µg/mL.

B1: V5-tagged SPLUNC1 expressed in Xenopus oocytes (other, not shown: small tags and cut ends)
chain: T1 sequence
Take B1: in data set [6], the “decrease in amiloride-sensitive ENaC current relative to control oocytes” value was approximately 70%.
